According to doi:10.1101/2023.05.17.540984:
Read-outs that look alike come from different tables or passages of the source.

Tests used:
ELK1 [1] = biological target: T1, ELK1 (UniProt P19419 1-428); test: EMSA
T1 sequence: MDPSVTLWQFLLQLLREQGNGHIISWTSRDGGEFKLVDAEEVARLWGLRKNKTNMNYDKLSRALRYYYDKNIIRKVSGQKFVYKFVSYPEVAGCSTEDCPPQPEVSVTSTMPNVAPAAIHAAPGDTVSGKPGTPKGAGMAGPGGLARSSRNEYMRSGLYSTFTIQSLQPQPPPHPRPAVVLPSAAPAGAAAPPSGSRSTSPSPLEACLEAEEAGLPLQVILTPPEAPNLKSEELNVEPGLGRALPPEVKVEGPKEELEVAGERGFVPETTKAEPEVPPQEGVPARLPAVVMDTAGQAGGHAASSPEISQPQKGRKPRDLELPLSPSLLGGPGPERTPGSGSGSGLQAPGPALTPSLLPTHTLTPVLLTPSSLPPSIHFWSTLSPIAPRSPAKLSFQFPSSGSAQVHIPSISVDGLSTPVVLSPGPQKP

ELK1 [2] = biological target: T1, ELK1; test: EMSA; remark: listed apart in the source

B1: rs8040749-G probe (centenarian allele) (dsDNA)
DNA 1: CCTGCCTTCCGGAAGTTCATG
DNA 2: CATGAACTTCCGGAAGGCAGG
ELK1 [1]
  binding result: binds

B2: rs8040749-A probe (reference allele) (dsDNA)
DNA 1: CCTGCCTTCCAGAAGTTCATG
DNA 2: CATGAACTTCTGGAAGGCAGG
ELK1 [2]
  binding result: no binding
